# Reference: patent publication US20250333514A1 (CDR LIFE, published 2025)
# Molecular target: T1, HLA-A*02:01/PRAME antigen (recombinant, … on HLA-A*02:01) (human, Complex biotinylated for SPR capture; site of biotin and any tag not stated, not in the letters.)
# T1 construct: also called PRAME target; pMHC
# Experiment: SPR (Biacore 8K), biotinylated pMHC captured, Fab-scFv analyte, single-cycle kinetics, 1:1 fit
# Description: Recombinantly produced hits in Fab-scFv format, as described in Example 4, were evaluated for their ability to bind HLA-A*02:01/PRAME antigen. Binding characterization was performed by surface plasmon resonance (SPR) using a Biacore™ 8k (Cytiva) device. Briefly, 3000 RU of Biotin CAPture reagent (Cytiva) was immobilized on a Series S Sensor Chip CAP (Cytiva) and the biotinylated ligand HLA-A*02:01/PRAME (SEQ ID NO: 68) was diluted in HPS-EP+ running buffer (TEKNOVA) and captured for 300 s at a flow rate of 2 μL/min at flow cell 2 resulting in a ligand capture level of >100 RU. Subsequently, at least three consecutive analyte injections were performed at suitable concentrations applying the single-cycle-kinetics mode at a flow rate of 30 μL/min with an association time of 90 s and the dissociation time set to >400 s. The chip surface was regenerated according to the manufacturer's instructions. After reference flow cell signal and blank injections subtraction, the data was fit to a 1:1 Langmuir binding model to determine the association rate constant kₐ and dissociation rate constant kd and calculate the equilibrium dissociation constant KD (kd/kₐ), also denoted as affinity, using the Biacore™ Insight Evaluation software.
row,Binder,Kd
1,"M2638 (bispecific antibody, Monovalent Fab-scFv: anti-CD3 Fab with the rabbit anti-pMHC scFv on the C-terminus of the Fab heavy chain; also called rabbit hit M2638; HLA-A*02:01/PRAMExCD3 Fab-scFv) heavy: EVQLVESGGGLVQPGGSLRLSCAASGFTFSTYAMNWVRQAPGKGLEWVGRIRSKYNNYATYYADSVKGRFTISRDDSKNTLYLQMNSLRAEDTAVYYCVRHGNFGDSYVSWFAYWGQGTLVTVSSASTKGPSVFPLAPSSKSTSGGTAALGCLVKDYFPEPVTVSWNSGALTSGVHTFPAVLQSSGLYSLSSVVTVPSSSLGTQTYICNVNHKPSNTKVDKKVEPKSCGGGGSQEQLVESGGGLVQPGGSLKLSCKASGFDFSTYGVSWVRQAPGKGLEWIGYIDPVYGSTYYASWVNGRFTISSHNAQNTLYLQLNSLTAADTATYFCVRDLYAGSSGYYMIYSLWGPGTLVTVSSGGGGSGGGGSGGGGSGGGGSELVMTQTPSSVSAAVGGTVTIKCQSSQSVYNNLLGWYQQKPGQPPKLLIYSASTLASGVPSRFSGSGSGTEFTLTISGVQADDAASYYCQGTYYNGDWYYPFGGGTEVVVK light: QAVVTQEPSLTVSPGGTVTLTCGSSTGAVTTSNYANWVQQKPGKSPRGLIGGTNKRAPGVPARFSGSLLGGKAALTISGAQPEDEADYYCALWYSNHWVFGGGTKLTVLGQPKAAPSVTLFPPSSEELQANKATLVCLISDFYPGAVTVAWKADSSPVKAGVETTTPSKQSNNKYAASSYLSLTPEQWKSHRSYSCQVTHEGSTVEKTVAPTECS",0.23 nM
2,"M3202 (bispecific antibody, Humanized variant of M2638, monovalent Fab-scFv) heavy: EVQLVESGGGLVQPGGSLRLSCAASGFTFSTYAMNWVRQAPGKGLEWVGRIRSKYNNYATYYADSVKGRFTISRDDSKNTLYLQMNSLRAEDTAVYYCVRHGNFGDSYVSWFAYWGQGTLVTVSSASTKGPSVFPLAPSSKSTSGGTAALGCLVKDYFPEPVTVSWNSGALTSGVHTFPAVLQSSGLYSLSSVVTVPSSSLGTQTYICNVNHKPSNTKVDKKVEPKSCGGGGSDIQMTQSPSSLSASVGDRVTITCRSSQSVYNNLLGWYQQKPGKAPKLLIYSASTLASGVPSRFSGSGSGTDFTLTISSLQPEDSATYYCQGTYYTGDWYYPFGCGTKVEIKGGGGSGGGGSGGGGSGGGGSQVQLVESGGGSVQPGRSLRLSCAASGFDFSTYGVSWVRQAPGKCLEWIGYIDPVYGSTHYADSVKGRFTISRDNSKNTLYLQMNSLRAEDTASYYCVRDLYAGSSGYYMIYSLWGQGTSVTVSS light: QAVVTQEPSLTVSPGGTVTLTCGSSTGAVTTSNYANWVQQKPGKSPRGLIGGTNKRAPGVPARFSGSLLGGKAALTISGAQPEDEADYYCALWYSNHWVFGGGTKLTVLGQPKAAPSVTLFPPSSEELQANKATLVCLISDFYPGAVTVAWKADSSPVKAGVETTTPSKQSNNKYAASSYLSLTPEQWKSHRSYSCQVTHEGSTVEKTVAPTECS",0.04 nM
3,"M3284 (bispecific antibody, Humanized variant of M2638, monovalent Fab-scFv) heavy: EVQLVESGGGLVQPGGSLRLSCAASGFTFSTYAMNWVRQAPGKGLEWVGRIRSKYNNYATYYADSVKGRFTISRDDSKNTLYLQMNSLRAEDTAVYYCVRHGNFGDSYVSWFAYWGQGTLVTVSSASTKGPSVFPLAPSSKSTSGGTAALGCLVKDYFPEPVTVSWNSGALTSGVHTFPAVLQSSGLYSLSSVVTVPSSSLGTQTYICNVNHKPSNTKVDKKVEPKSCGGGGSDIQMTQSPSSLSASVGDRVTITCRSSQSVYNNLLGWYQQKPGKAPKLLIYSASTLASGVPSRFSGSGSGTDFTLTISSLQPEDSATYYCQGTYYTGDWYYPFGCGTKVEIKGGGGSGGGGSGGGGSGGGGSQVQLVESGGGSVQPGRSLRLSCAASGFTVSTYGVSWVRQAPGKCLEWIGYIDPVYGSTHYADSVKGRFTISRDNSKNTLYLQMNSLRAEDTASYYCVRDLYAGSSGYYMIYSLWGQGTSVTVSS light: QAVVTQEPSLTVSPGGTVTLTCGSSTGAVTTSNYANWVQQKPGKSPRGLIGGTNKRAPGVPARFSGSLLGGKAALTISGAQPEDEADYYCALWYSNHWVFGGGTKLTVLGQPKAAPSVTLFPPSSEELQANKATLVCLISDFYPGAVTVAWKADSSPVKAGVETTTPSKQSNNKYAASSYLSLTPEQWKSHRSYSCQVTHEGSTVEKTVAPTECS",0.27 nM
4,"M3285 (bispecific antibody, Humanized variant of M2638, monovalent Fab-scFv) heavy: EVQLVESGGGLVQPGGSLRLSCAASGFTFSTYAMNWVRQAPGKGLEWVGRIRSKYNNYATYYADSVKGRFTISRDDSKNTLYLQMNSLRAEDTAVYYCVRHGNFGDSYVSWFAYWGQGTLVTVSSASTKGPSVFPLAPSSKSTSGGTAALGCLVKDYFPEPVTVSWNSGALTSGVHTFPAVLQSSGLYSLSSVVTVPSSSLGTQTYICNVNHKPSNTKVDKKVEPKSCGGGGSDIQMTQSPSSLSASVGDRVTITCRSSQSVYNNLLGWYQQKPGKAPKLLIYSASTLASGVPSRFSGSGSGTDFTLTISSLQPEDSATYYCQGTYYTGDWYYPFGCGTKVEIKGGGGSGGGGSGGGGSGGGGSQVQLVESGGGSVQPGRSLRLSCAASGFDFSTYGVSWVRQAPGKCLEWIGYIDPVYGSTHYADSVKGRFTISRDNSKNTLYLQMNSLRAEDTASYYCARDLYAGSSGYYMIYSLWGQGTSVTVSS light: QAVVTQEPSLTVSPGGTVTLTCGSSTGAVTTSNYANWVQQKPGKSPRGLIGGTNKRAPGVPARFSGSLLGGKAALTISGAQPEDEADYYCALWYSNHWVFGGGTKLTVLGQPKAAPSVTLFPPSSEELQANKATLVCLISDFYPGAVTVAWKADSSPVKAGVETTTPSKQSNNKYAASSYLSLTPEQWKSHRSYSCQVTHEGSTVEKTVAPTECS",1.3 nM

# The remaining binders from weak to strong by Kd, led by results:
row,Kd,Binder
1,0.66 nM,"M2913 (bispecific antibody, Humanized variant of M2638, monovalent Fab-scFv) heavy: EVQLVESGGGLVQPGGSLRLSCAASGFTFSTYAMNWVRQAPGKGLEWVGRIRSKYNNYATYYADSVKGRFTISRDDSKNTLYLQMNSLRAEDTAVYYCVRHGNFGDSYVSWFAYWGQGTLVTVSSASTKGPSVFPLAPSSKSTSGGTAALGCLVKDYFPEPVTVSWNSGALTSGVHTFPAVLQSSGLYSLSSVVTVPSSSLGTQTYICNVNHKPSNTKVDKKVEPKSCGGGGSDIQMTQSPSSLSASVGDRVTITCQSSQSVYNNLLGWYQQKPGKAPKLLIYSASTLASGVPSRFSGSGSGTDFTLTISSLQPEDFATYYCQGTYYNGDWYYPFGCGTKVEIKGGGGSGGGGSGGGGSGGGGSEVQLVESGGGSVQPGGSLRLSCAASGFDFSTYGVSWVRQAPGKCLEWIGYIDPVYGSTYYASWVNGRFTISRDNSKNTLYLQMNSLRAEDTASYYCVRDLYAGSSGYYMIYSLWGQGTSVTVSS light: QAVVTQEPSLTVSPGGTVTLTCGSSTGAVTTSNYANWVQQKPGKSPRGLIGGTNKRAPGVPARFSGSLLGGKAALTISGAQPEDEADYYCALWYSNHWVFGGGTKLTVLGQPKAAPSVTLFPPSSEELQANKATLVCLISDFYPGAVTVAWKADSSPVKAGVETTTPSKQSNNKYAASSYLSLTPEQWKSHRSYSCQVTHEGSTVEKTVAPTECS"
2,0.09 nM,"M3283 (bispecific antibody, Humanized variant of M2638, monovalent Fab-scFv) heavy: EVQLVESGGGLVQPGGSLRLSCAASGFTFSTYAMNWVRQAPGKGLEWVGRIRSKYNNYATYYADSVKGRFTISRDDSKNTLYLQMNSLRAEDTAVYYCVRHGNFGDSYVSWFAYWGQGTLVTVSSASTKGPSVFPLAPSSKSTSGGTAALGCLVKDYFPEPVTVSWNSGALTSGVHTFPAVLQSSGLYSLSSVVTVPSSSLGTQTYICNVNHKPSNTKVDKKVEPKSCGGGGSDIQMTQSPSSLSASVGDRVTITCRSSQSVYNNLLGWYQQKPGKAPKLLIYSASTLASGVPSRFSGSGSGTDFTLTISSLQPEDSATYYCQGTYYTGDWYYPFGCGTKVEIKGGGGSGGGGSGGGGSGGGGSQVQLVESGGGSVQPGRSLRLSCAASGFTFSTYGVSWVRQAPGKCLEWIGYIDPVYGSTHYADSVKGRFTISRDNSKNTLYLQMNSLRAEDTASYYCVRDLYAGSSGYYMIYSLWGQGTSVTVSS light: QAVVTQEPSLTVSPGGTVTLTCGSSTGAVTTSNYANWVQQKPGKSPRGLIGGTNKRAPGVPARFSGSLLGGKAALTISGAQPEDEADYYCALWYSNHWVFGGGTKLTVLGQPKAAPSVTLFPPSSEELQANKATLVCLISDFYPGAVTVAWKADSSPVKAGVETTTPSKQSNNKYAASSYLSLTPEQWKSHRSYSCQVTHEGSTVEKTVAPTECS"
3,0.04 nM,"M3182 (bispecific antibody, Humanized variant of M2638, monovalent Fab-scFv) heavy: EVQLVESGGGLVQPGGSLRLSCAASGFTFSTYAMNWVRQAPGKGLEWVGRIRSKYNNYATYYADSVKGRFTISRDDSKNTLYLQMNSLRAEDTAVYYCVRHGNFGDSYVSWFAYWGQGTLVTVSSASTKGPSVFPLAPSSKSTSGGTAALGCLVKDYFPEPVTVSWNSGALTSGVHTFPAVLQSSGLYSLSSVVTVPSSSLGTQTYICNVNHKPSNTKVDKKVEPKSCGGGGSDIQMTQSPSSLSASVGDRVTITCRSSQSVYNNLLGWYQQKPGKAPKLLIYSASTLASGVPSRFSGSGSGTDFTLTISSLQPEDFATYYCQGTYYTGDWYYPFGCGTKVEIKGGGGSGGGGSGGGGSGGGGSQVQLVESGGGSVQPGRSLRLSCAASGFDFSTYGVSWVRQAPGKCLEWIGYIDPVYGSTHYADSVKGRFTISRDNSKNTLYLQMNSLRAEDTASYYCVRDLYAGSSGYYMIYSLWGQGTSVTVSS light: QAVVTQEPSLTVSPGGTVTLTCGSSTGAVTTSNYANWVQQKPGKSPRGLIGGTNKRAPGVPARFSGSLLGGKAALTISGAQPEDEADYYCALWYSNHWVFGGGTKLTVLGQPKAAPSVTLFPPSSEELQANKATLVCLISDFYPGAVTVAWKADSSPVKAGVETTTPSKQSNNKYAASSYLSLTPEQWKSHRSYSCQVTHEGSTVEKTVAPTECS"
